The record followed here is patent US8975044B2, “Polynucleotides encoding for frizzled-binding agents and uses thereof” (OncoMed Pharmaceuticals, Inc., priority 2008, dated 2015).

As a reminder, the EC50 is the concentration giving half of the maximal effect.

The target in one experiment is T1, FZD1 (Homo sapiens, UniProt Q9UP38).
T1 construct: plasmid DNA expressing full-length FZD1, 2, 5, 7 or 8; expressed in transfected cells; host or cells: HEK293
The experiment is described as follows: FACS binding to FZD-transfected HEK293 cells. The note with it: transfected HEK293 cells. The procedure: (§1) To measure antibody binding to FZD by flow cytometry HEK293 cells were co-transfected with FZD expression vectors and the transfection marker GFP. Twenty-four to forty-eight hours post-transfection, cells were collected in suspension and incubated on ice with anti-FZD antibodies (10 μg/ml unless otherwise indicated) or control IgG to detect background antibody binding. The cells were washed and primary antibodies detected with Fc domain-specific secondary antibodies conjugated to a fluorescent chromophore (e.g. phycoerythrin conjugated anti-human IgG). Labeled cells were then analyzed by flow cytometry to identify anti-FZD antibodies that specifically recognize cell surface expression of FZD protein. Monoclonal antibodies 18R5 and 18R8 recognized FZD on transfected cells. As shown in FIG. 1 and FIG. 2, both 18R8 and 18R5 bind to multiple FZD including FZD1, FZD2, FZD5, FZD7, and FZD8. To examine the relative ability of 18R8 and 18R5 to bind to each FZD protein, titration analysis was conducted wherein the amount of antibody in the binding reaction was varied (FIG. 2).
(§2) HEK293 cells were co-transfected with a plasmid DNA expressing full-length FZD1, 2, 5, 7 or 8 along with another plasmid expressing the reporter gene GFP used as a transfection marker. Fugene 6 (Roche) was used as transfection reagent according to the manufacturer directions. Transfected cells were incubated twenty-four to forty-eight hours at 37° C. and 5% CO2. The anti-FZD mAbs were then diluted in a final volume of 50 μl starting with a concentration of 20 μg/ml and serially diluted 4-fold for a total of 8 dilutions. Each FZD/GFP 293 transiently tranfectant pool was collected in suspension and 100,000 transfected cells were incubated on ice 30-60 minutes with the diluted anti-FZD mAb to be tested. The cells were washed and bound anti-Fzd antibodies were detected with a secondary anti-human antibody conjugated to a fluorescent chromophore. Labeled cells were then detected and counted by FACS. The FACS data generated were expressed in Mean Fluorescence Intensity (MFI) units. GraphPad Prism software was used to graph and analyze the data. MFIs were plotted as a function of Ab concentration to establish dose-response curves. A non-linear regression was applied to the numbers to fit the curve and calculate EC50s.
On the technique in general: Flow cytometry measures light scatter and fluorescence of single cells or particles in a stream.

The next experiment deals with T2, FZD2 (Homo sapiens, UniProt Q14332).
T2 construct: plasmid DNA expressing full-length FZD1, 2, 5, 7 or 8; expressed in transfected cells; host or cells: HEK293
T2 sequence (Q14332 24-565): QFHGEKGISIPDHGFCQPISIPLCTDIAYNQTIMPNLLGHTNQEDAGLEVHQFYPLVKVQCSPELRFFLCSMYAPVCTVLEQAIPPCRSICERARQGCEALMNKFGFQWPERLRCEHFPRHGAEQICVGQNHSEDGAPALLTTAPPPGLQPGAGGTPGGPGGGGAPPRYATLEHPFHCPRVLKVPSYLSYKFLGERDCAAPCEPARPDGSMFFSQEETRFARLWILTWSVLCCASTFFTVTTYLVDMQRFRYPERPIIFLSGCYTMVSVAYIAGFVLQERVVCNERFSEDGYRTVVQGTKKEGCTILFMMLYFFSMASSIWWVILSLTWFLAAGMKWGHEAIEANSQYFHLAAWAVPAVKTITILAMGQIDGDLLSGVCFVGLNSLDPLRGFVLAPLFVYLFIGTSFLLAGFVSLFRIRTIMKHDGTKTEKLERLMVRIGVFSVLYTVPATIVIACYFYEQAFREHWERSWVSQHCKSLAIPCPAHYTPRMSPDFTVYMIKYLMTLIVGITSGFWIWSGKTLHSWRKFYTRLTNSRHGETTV
The experiment is described as follows: FACS binding to FZD-transfected HEK293 cells. The note with it: for binding to cell-surface FZD2 by flow cytometry (in words): transfected HEK293 cells. The procedure:
as §1, §2

For another experiment, the target named is T3, FZD5 (Homo sapiens, UniProt Q13467).
T3 construct: plasmid DNA expressing full-length FZD1, 2, 5, 7 or 8; expressed in transfected cells; host or cells: HEK293
T3 sequence (Q13467 27-585): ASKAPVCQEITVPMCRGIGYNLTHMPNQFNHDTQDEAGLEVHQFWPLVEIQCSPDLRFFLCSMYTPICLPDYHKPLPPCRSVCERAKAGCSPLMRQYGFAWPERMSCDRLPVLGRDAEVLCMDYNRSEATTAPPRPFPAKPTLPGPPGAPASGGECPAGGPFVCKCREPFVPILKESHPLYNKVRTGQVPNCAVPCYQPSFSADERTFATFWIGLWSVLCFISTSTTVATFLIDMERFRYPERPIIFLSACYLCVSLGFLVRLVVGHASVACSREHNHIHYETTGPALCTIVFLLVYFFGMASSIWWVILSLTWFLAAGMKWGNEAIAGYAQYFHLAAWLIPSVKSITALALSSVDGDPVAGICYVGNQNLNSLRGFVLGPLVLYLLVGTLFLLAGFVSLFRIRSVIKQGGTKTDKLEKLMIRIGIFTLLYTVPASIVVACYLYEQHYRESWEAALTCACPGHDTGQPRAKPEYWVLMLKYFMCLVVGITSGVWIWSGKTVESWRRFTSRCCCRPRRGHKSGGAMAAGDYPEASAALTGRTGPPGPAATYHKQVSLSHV
The experiment is described as follows: FACS binding to FZD-transfected HEK293 cells. The note with it: for EC50: FACS MFI dose-response, full-length FZD in HEK293, 20 μg/ml 4-fold dilutions; for binding to cell-surface FZD5 by flow cytometry (in words): transfected HEK293 cells. Here is the method:
as §1, §2

The target in a further experiment is T4, FZD7 (Homo sapiens, UniProt O75084).
T4 construct: plasmid DNA expressing full-length FZD1, 2, 5, 7 or 8; expressed in transfected cells; host or cells: HEK293
The experiment is described as follows: FACS binding to FZD-transfected HEK293 cells. The note with it: transfected HEK293 cells. The procedure:
as §1, §2

Experiment [1] deals with T5, FZD8 (Homo sapiens, UniProt Q9H461).
T5 construct: plasmid DNA expressing full-length FZD1, 2, 5, 7 or 8; expressed in transfected cells; host or cells: HEK293
T5 sequence (Q9H461 28-694): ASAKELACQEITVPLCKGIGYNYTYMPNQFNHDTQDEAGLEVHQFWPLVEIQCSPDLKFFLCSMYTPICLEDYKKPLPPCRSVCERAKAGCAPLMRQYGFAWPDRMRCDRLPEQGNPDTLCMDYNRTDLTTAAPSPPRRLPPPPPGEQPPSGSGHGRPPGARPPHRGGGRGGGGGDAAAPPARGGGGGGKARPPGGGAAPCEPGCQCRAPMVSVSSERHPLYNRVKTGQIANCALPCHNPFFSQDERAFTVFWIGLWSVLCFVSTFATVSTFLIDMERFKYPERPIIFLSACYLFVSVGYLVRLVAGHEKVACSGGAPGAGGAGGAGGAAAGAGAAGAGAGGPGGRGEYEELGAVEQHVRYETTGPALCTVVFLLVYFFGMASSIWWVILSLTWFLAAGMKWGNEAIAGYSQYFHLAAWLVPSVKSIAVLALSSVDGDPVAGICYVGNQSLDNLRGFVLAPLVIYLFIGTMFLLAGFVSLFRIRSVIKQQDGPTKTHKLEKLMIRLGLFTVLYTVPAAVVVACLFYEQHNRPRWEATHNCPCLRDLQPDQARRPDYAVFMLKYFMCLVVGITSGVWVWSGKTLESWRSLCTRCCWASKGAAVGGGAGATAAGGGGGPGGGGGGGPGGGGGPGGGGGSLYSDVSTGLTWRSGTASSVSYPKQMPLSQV
The experiment in a line: FACS binding to FZD-transfected HEK293 cells. The note with it: for EC50: FACS MFI dose-response, full-length FZD in HEK293, 20 μg/ml 4-fold dilutions; for binding to cell-surface FZD8 by flow cytometry (in words): transfected HEK293 cells. Here is the method: as §1, §2

Experiment [2] has as its target T6, FZD8 (Homo sapiens, UniProt Q9H461, F127V/G126N).
T6 construct: N-terminus of the Fri domain of FZD8 in turn fused to the transmembrane domain and intracellular domain of CD4 protein; expressed in transfected cells; host or cells: HEK293
T6 sequence (Q9H461 28-158 G126N/F127V): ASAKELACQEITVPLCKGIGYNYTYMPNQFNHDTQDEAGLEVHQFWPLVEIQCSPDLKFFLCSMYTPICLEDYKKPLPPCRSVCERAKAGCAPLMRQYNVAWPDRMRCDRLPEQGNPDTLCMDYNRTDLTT
The experiment is described as follows: Epitope mapping by FACS on FZD8 Fri domain variants on HEK293 cells. The note with it: amino acids 126-127 mutated from FG to NV. Type of experiment: binding. Here is the method: To identify the FZD epitope recognized by the 18R8 IgG antibody, epitope mapping was performed. Flow cytometry analysis of cell surface expressed FZD was utilized to measure antibody binding. Mammalian expression plasmid vectors comprising a CMV promoter upstream of polynucleotides that encode an N-terminal signal sequence FLAG epitope tag fused to the N-terminus of the Fri domain of FZD8 in turn fused to the transmembrane domain and intracellular domain of CD4 protein were generated by standard recombinant technology. This expression construct allows expression of the FZD8 Fri domain on the cell surface, as well as expression of a FLAG epitope tag to monitor expression. Site-direct mutagenesis was then used to modify selected amino acids within the extracellular domain of FZD. HEK293 cells were co-transfected with expression vectors encoding the FZD and the transfection marker GFP. Forty-eight hours post-transfection, cells were collected in suspension and incubated on ice with anti-FZD antibody or control IgG to detect background antibody binding. The cells were washed and primary antibodies detected with anti-antibody secondary antibodies conjugated to a fluorescent chromophore. Labeled cells were then analyzed by flow cytometry to measure the binding of anti-FZD antibody to cell surface FZD.
Epitope mapping for the anti-FZD antibody 44R24 was performed in a manner similar to that described above in Example 5 for the antibodies 18R8 and 18R5. The ability of 44R24 to bind to a similar epitope as 18R8 was assessed by flow cytometry using a series of amino acid variants of FZD8 previously shown to disrupt binding of 18R8 (see Example 5 and FIGS. 6 and 7).

The test system of a further experiment is C28 tumor cells. The experiment in a line: C28 colon tumor growth study. Type of experiment: in vivo, Nod-Scid mice. The note with it: 15 mg/kg intraperitoneally twice per week. The procedure:
C28 tumor cells were injected sub-cutaneously in Nod-Scid mice. Tumors were allowed to grow until they had reached an average volume of 126 mm^3. Tumor bearing animals were groups were randomized into four groups (n=10 mice per group) and treated with either Control Ab (black squares), 18R8 (gray triangles), 44R24 (black open circles), or 18R5 (gray circles) (FIG. 58). Antibodies were dosed intraperitoneally at 15 mg/kg, twice per week. Tumor volumes are indicated.

T1 sequence (Q9UP38 70-647): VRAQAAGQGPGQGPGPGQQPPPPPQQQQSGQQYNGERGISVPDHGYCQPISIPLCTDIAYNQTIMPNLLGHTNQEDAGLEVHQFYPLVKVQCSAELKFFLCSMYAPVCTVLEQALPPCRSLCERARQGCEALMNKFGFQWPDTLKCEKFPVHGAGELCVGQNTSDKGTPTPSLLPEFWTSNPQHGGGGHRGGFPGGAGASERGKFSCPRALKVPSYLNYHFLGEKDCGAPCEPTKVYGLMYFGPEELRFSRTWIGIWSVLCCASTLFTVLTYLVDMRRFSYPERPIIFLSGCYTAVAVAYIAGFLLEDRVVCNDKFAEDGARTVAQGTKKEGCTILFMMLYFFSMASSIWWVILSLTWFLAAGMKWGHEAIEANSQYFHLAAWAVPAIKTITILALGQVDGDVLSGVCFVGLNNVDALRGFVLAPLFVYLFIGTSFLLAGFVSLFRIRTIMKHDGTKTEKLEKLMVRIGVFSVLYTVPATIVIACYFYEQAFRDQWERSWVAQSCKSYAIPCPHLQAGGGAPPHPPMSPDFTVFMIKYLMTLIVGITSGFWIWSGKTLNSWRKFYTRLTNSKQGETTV

B1: 44R24: anti-FZD5/8 IgG antibody, VH SEQ ID NO:85, VL SEQ ID NO:86; ATCC deposit no. PTA-10311 (antibody, V domains shown)
VH: EVQLVESGGGLVQPGGSLRLSCAASGFTFSSYYITWVRQAPGKGLEWVSTISYSSSNTYYADSVKGRFTISRDNSKNTLYLQMNSLRAEDTAVYYCARSIVFDYWGQGTLVTVSS
VL: DIELTQPPSVSVAPGQTARISCSGDALGNRYVYWYQQKPGQAPVLVIPSGIPERFSGSNSGNTATLTISGTQAEDEADYYCGSWDTRPYPKYVFGGGTKLTVLG
modifications: 44R24 VH; 44R24 VL
notes: ATCC deposit no; PTA-10311
On to B1, for which, in the experiment with FZD1, the “binding to cell-surface FZD1 by flow cytometry (in words)” value (shortened to “binding to cell-surface FZD1”) was “does not bind”. The “EC50 (nM) Fzd2” value in the experiment with FZD2 (FACS MFI dose-response, full-length FZD in HEK293, 20 μg/ml 4-fold dilutions) is listed as “no binding”. Further, the “binding to cell-surface FZD2 by flow cytometry (in words)” value (“binding to cell-surface FZD2” below) in the experiment with FZD2 was “does not bind”. Moreover, in the experiment with FZD5, the response was half-maximal at 1.89 nM (EC50) and the “binding to cell-surface FZD5 by flow cytometry (in words)” value (from here on “binding to cell-surface FZD5”) is recorded as “good affinity”. Moreover, the “binding to cell-surface FZD7 by flow cytometry (in words)” value (shortened to “binding to cell-surface FZD7”) with FZD7 is listed as “does not bind”. In the experiment with FZD8 [1], the response was half-maximal at 1.09 nM (EC50) and the “binding to cell-surface FZD8 by flow cytometry (in words)” value (“binding to cell-surface FZD8” below) is “good affinity”. Moreover, the “binding to FZD8 variant” value in the experiment with FZD8 [2] is reported as “reduced staining”. Besides, in the experiment with C28 tumor cells, the “tumor growth relative to the control group” value is “reduced growth relative to the control group”.

B2: 18R5: human anti-FZD antibody; VH SEQ ID NO:10 (as 18R8), VL SEQ ID NO:14; binds FZD1, 2, 5, 7, 8 (antibody, V domains shown)
VH: EVQLVESGGGLVQPGGSLRLSCAASGFTFSHYTLSWVRQAPGKGLEWVSVISGDGSYTYYADSVKGRFTISSDNSKNTLYLQMNSLRAEDTAVYYCARNFIKYVFANWGQGTLVTVSS
VL: DIELTQPPSVSVAPGQTARISCSGDNIGSFYVHWYQQKPGQAPVLVIYDKSNRPSGIPERFSGSNSGNTATLTISGTQAEDEADYYCQSYANTLSLVFGGGTKLTVLG
modifications: 18R5/18R8 heavy chain variable region (VH); 18R5 light chain variable region (VL)
In the case of B2, the “binding to cell-surface FZD1” value with FZD1 was “bind and greater binding potency and High affinity binding”. In the experiment with FZD2, the “binding to cell-surface FZD2” value was “bind and greater binding potency and High affinity binding”. For the same molecule, in the experiment with FZD5, the concentration for a half-maximal effect (EC50) was 1.1 nM; the “binding to cell-surface FZD5” value is “bind and greater binding potency and High affinity binding”. Also, in the experiment with FZD7, the “binding to cell-surface FZD7” value is “bind and greater binding potency and High affinity binding”. In the experiment with FZD8 [1], the EC50 was 12 nM; the “binding to cell-surface FZD8” value is “greater binding potency and bind”. Also, the “binding to FZD8 variant” value with FZD8 [2] is “reduced staining”. Also, in the experiment with C28 tumor cells, the “tumor growth relative to the control group” value was “reduced growth relative to the control group”.

B3: 18R8: human anti-FZD antibody from phage display; VH SEQ ID NO:10, VL SEQ ID NO:12; binds FZD1, 2, 5, 7, 8 (antibody, V domains shown)
VH: EVQLVESGGGLVQPGGSLRLSCAASGFTFSHYTLSWVRQAPGKGLEWVSVISGDGSYTYYADSVKGRFTISSDNSKNTLYLQMNSLRAEDTAVYYCARNFIKYVFANWGQGTLVTVSS
VL: DIELTQPPSVSVAPGQTARISCSGDKLGKKYASWYQQKPGQAPVLVIYEKDNRPSGIPERFSGSNSGNTATLTISGTQAEDEADYYCSSFAGNSLEVFGGGTKLTVLG
modifications: 18R5/18R8 heavy chain variable region (VH); 18R8 light chain variable region (VL)
For B3, the “binding to cell-surface FZD1” value with FZD1 was “bind”. In addition, the “binding to cell-surface FZD2” value with FZD2 is on record as “bind”. Moreover, the “binding to cell-surface FZD5” value in the experiment with FZD5 was “bind”. In addition, the “binding to cell-surface FZD7” value with FZD7 is “bind”. Moreover, the “binding to cell-surface FZD8” value with FZD8 [1] is on record as “bind”. In addition, the “binding to FZD8 variant” value in the experiment with FZD8 [2] was “similarly lost”. The “tumor growth relative to the control group” value in the experiment with C28 tumor cells was “had no effect”.
